Measured values published in article PMC2267215.

Experiments:
[1] = target: FGFR1 D2-D3 (Homo sapiens) (UniProt P11362); settings: cited from earlier work
[2] = target: NCAM 1FN3–2FN3 Y672E mutant (human); test: SEC; size-exclusion chromatography of the purified NCAM 1FN3–2FN3 proteins; data not shown
[3] = target: NCAM 1FN3–2FN3 M610R mutant (human); test: as above
[4] = target: NCAM 1FN3–2FN3 (wild-type FN3 domain tandem of human neural cell adhesion molecule) (human); test: SPR; Biacore 3000, 25 °C; NCAM 1FN3–2FN3 proteins amine-coupled to a CM4 chip (1800 RU wild type, 1900 RU M610R); analytes FGFR1 D1–D3 or D2–D3 at 1–100 μM; HBS-EP running buffer, analytes in PBS; KD estimated from plateau values at equilibrium, very approximate
[5] = target: NCAM 1FN3–2FN3 R690E mutant (human); test: SEC; size-exclusion chromatography of the purified NCAM 1FN3–2FN3 proteins; data not shown

For NCAM 1FN3-2FN3 (from UniProt P13591), the Kd [1] is given as 10 µM.

“NCAM 1FN3–2FN3 Y672E mutant (domain or fragment)” gave a stoichiometry N [2] of 2.

“NCAM 1FN3–2FN3 M610R mutant (domain or fragment)” gave a stoichiometry N [3] of 2.

With “FGFR1 D2–D3 (soluble ectodomain construct of fibroblast growth factor receptor 1, residues 151–364) (from UniProt P11362 151-364) (domain or fragment)” the Kd [4] was greater than 100 µM.

“NCAM 1FN3–2FN3 R690E mutant (domain or fragment)” gave a stoichiometry N [5] of 2.
